Measured values: article PMC4452343, “Monitoring β-arrestin recruitment via β-lactamase enzyme fragment complementation: purification of peptide E as a low-affinity ligand for mammalian bombesin receptors” (PLoS ONE, 2015)

Target: gastrin-releasing peptide receptor (human) (UniProt P30550)
Sequence (P30550 whole entry): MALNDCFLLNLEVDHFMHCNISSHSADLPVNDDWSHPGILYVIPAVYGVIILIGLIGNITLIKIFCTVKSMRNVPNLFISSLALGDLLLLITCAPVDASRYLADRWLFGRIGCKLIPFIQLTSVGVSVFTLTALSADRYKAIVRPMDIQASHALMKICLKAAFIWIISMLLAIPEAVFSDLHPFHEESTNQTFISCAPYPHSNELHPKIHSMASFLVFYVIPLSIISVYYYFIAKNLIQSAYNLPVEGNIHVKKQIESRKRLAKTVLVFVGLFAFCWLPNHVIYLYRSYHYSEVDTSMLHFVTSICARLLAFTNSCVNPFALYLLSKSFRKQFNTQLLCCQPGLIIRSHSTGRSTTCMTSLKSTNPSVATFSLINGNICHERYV

- EC50 of NFAT-luciferase reporter activation in CHO cells expressing hGRPR: 120 pM
B1: gastrin-releasing peptide (peptide)
chain: VPLPAGGGTVLTKMYPRGNHWAVGHLM
